Test results reported in patent US20090298196A1 (published 2009).
Ends that are not written are not given here.

How the values were obtained:
[1] = molecular target: T1, peptide of sequence no. 1 (GEPGDDAPS, amino acid nos. 757 to 765 of human type 2 collagen) (human, also: biotin-labeled in DELFIA screening, immunogen form had a C-terminal cysteine added); assay: characterisation of the antibody (peptide immunisation and DELFIA screening)
T1 construct: also called biotin-labeled target antigen peptide
T1 peptide: GEPGDDAPS
Description: (§1) The screening was done using the time-resolved fluorescence immunoassay (DELFIA, Amersham, registered trademark) described below. 50 μl measurement buffer solution (50 mM tris hydrochloric acid buffer solution (pH 7.5) containing 150 mM NaCl, 0.01% Tween80, 0.5% BSA and 0.05% NaN₃), 50 μl culture supernatant and 50 μl labeled antigen (measurement buffer solution containing 20 ng/ml biotin-labeled target antigen peptide and 100 ng/ml europium-labeled streptoavidine (manufactured by Perkin-Elmer Life Science)) were consecutively added to microtiter plates (manufactured by Sumitomo Bakelite) with solidified anti-mouse IgG antibodies (manufactured by Shibayagi), and a reaction was conducted at 4° C. for 16 hours. After washing the plates twice using 200 μl washing solution (150 mM NaCl, 0.02% NaN₃ and 0.01% Tween20), 150 μl enhancement solution (manufactured by Perkin-Elmer Life Science) were added, and the time-resolved fluorescence was measured using 1420ARVOsx Multilabel Counter (manufactured by Perkin-Elmer Life Science). One well with high reactivity was selected by means of this screening, cloning was repeated twice using the limiting dilution method, and the presence of antibody-producing hybridoma TAG-6G4 was established. […]

[2] = molecular target: T2, peptide of sequence no. 2 (GPPGPQG, amino acid nos. 769 to 775 of human type 2 collagen) (human, also: immunogen form had an N-terminal cysteine added); assay: as above
T2 peptide: GPPGPQG
Description: as §1

Binder | binding result [1] | binding result [2]
6G4 antibody (monoclonal antibody produced by hybridoma TAG-6G4) (antibody, mouse IgG1, V domains shown, Mouse IgG1(k), 150 kDa, H chain 50 kDa and L chain 27 kDa; It was labeled with europium cryptate for the HTRF assay; also called 6G4 antibodies; cryptate-labeled 6G4 antibodies) VH: EVQLVESGGSLVQPGGSLKLSCAASGFTFNNYGMSWVRQIPDKRLELVATITGNGHSTYYPVSVRGRFTISRDNAKNTLYLQMSSLKSEDTAMYYCVRGYSNFAFWGQGTTLTVSS VL: not shown | binds | 
2E6 antibody (monoclonal antibody produced by hybridoma TAG-2E6) (antibody, V domains shown, Mouse IgG2b(k), 150 kDa, H chain 50 kDa and L chain 27 kDa; It was labeled with XL665 for the HTRF assay and immobilised on a carrier column for purification; also called 2E6 antibodies; XL665-labeled 2E6 antibodies) VH: QVTLKESGPGILQPSQTLSLTCSFSGFSLSTYGMGVGWIRQPSGKGLEWLAHIWWNDNKYYNTTLKSRLTISKDTSNKQVFLKIASVDTADTATYYCARIERWDPWFAYWGQGTLVTVSA VL: DVVMTQTPLSLPVSLGDQASISCRSSQSLVYSNGNTYFHWYLQKPGQSPKLLIYKVSNRFSGVPDRFSGSGSGTDFTLKISRVEAEDLGVYFCSQSTHVPLTFGAGTKLELKR |  | binds
